HAMA回避効果 and HAMA回避率 data for three substances are collected here from JP2011016773A.

The target of this assay is HAMA血清タイプ1(Roche製、品番:1767275). Nature of the assay: forward sandwich ELISA, inhibition of HAMA bridging of anti-hCEA antibodies, blocker solution at 1 ug/ml. A general note: In an ELISA, binding on a coated surface is turned into a signal by an enzyme label.

The substance マウスIgG(CHEMICON製、品番:PP54) (antibody) yielded a HAMA回避効果 of 61%.

In turn, “Heterophilic Blocking Reagent1 (SCANTIBODIES LABORATORY，INC.製、品番:3KC534−075)” showed a HAMA回避率 of 68%.

“MAK33−IgG1(Roche製、品番:1200941) (antibody)” had a HAMA回避率 of 69%.
